In US20130287781A1 (GlaxoSmithKline, published 2013):

T1: native human Nogo-A of IMR32 neuroblastoma cells (intracellular) (human, UniProt Q9NQC3 1-1192)
T1 construct: whole, on cells; Detected inside permeabilised, fixed cells (ER-resident), not on the cell surface; also called intracellular Nogo-A; native Nogo-A
T1 sequence (looked up): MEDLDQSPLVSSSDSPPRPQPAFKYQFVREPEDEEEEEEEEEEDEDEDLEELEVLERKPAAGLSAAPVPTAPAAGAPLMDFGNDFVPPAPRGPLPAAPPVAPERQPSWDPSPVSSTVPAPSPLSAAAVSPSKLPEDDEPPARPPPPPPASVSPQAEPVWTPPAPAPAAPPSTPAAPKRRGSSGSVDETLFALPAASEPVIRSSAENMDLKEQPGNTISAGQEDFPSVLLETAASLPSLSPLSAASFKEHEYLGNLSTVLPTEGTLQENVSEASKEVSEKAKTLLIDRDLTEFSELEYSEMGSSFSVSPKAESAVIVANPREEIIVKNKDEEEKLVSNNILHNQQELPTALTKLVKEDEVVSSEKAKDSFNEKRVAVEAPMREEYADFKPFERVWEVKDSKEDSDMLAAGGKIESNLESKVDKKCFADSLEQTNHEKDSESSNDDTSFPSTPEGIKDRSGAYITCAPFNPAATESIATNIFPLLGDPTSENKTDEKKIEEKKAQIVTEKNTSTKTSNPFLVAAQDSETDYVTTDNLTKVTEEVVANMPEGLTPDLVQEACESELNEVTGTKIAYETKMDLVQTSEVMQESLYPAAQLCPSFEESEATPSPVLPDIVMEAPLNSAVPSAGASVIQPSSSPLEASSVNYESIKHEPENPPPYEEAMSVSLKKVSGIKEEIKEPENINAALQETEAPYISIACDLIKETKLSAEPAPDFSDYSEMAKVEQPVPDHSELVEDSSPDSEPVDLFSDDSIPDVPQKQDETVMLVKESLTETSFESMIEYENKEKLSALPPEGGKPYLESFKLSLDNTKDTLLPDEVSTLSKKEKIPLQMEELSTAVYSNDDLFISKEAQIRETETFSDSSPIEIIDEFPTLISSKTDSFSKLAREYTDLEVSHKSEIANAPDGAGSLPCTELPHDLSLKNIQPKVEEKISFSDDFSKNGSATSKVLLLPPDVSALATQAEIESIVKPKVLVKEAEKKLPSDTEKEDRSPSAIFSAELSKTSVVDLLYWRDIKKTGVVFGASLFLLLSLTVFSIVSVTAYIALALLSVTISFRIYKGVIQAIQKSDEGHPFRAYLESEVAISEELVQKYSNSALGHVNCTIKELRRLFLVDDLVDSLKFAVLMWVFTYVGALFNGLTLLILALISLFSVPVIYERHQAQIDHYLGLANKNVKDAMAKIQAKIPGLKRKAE

T2: peptide 7 (biotin-SGSG-VLPDIVMEAPLNSAVP) (human, N-terminal biotin)
T2 peptide: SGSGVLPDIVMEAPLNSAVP

T3: peptide 6 (biotin-SGSG-TPSPVLPDIVMEAPLN) (human, N-terminal biotin)
T3 peptide: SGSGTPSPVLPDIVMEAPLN


What was measured:
GST-human NOGO-A56 [1] = target: T4, GST-human NOGO-A56 (human); test: SPR (Biacore) off-rate on NOGO chip, panel of H6FL CDR H3 variants with L13FL
T4 construct: Expressed in E. coli BL21 from pGEX-6P1 and purified on glutathione-sepharose; the GST tag is part of the protein in the assays; also called GST-Nogo-A 5+6; GST Nogo-A 5 + 6

GST-human NOGO-A56 [2] = target: T4, GST-human NOGO-A56; test: direct ELISA on NOGO (GST-human NOGO-A56), CDR H3 variant of H6FL with L13FL, Abs490; coating concentration not given
GST-human NOGO-A56 [3] = target: T4, GST-human NOGO-A56; test: SPR (Biacore), GST-human NOGO-A56 amine-coupled to CM5, antibody flowed over, 37 C
Procedure: (§1) GST-human NOGO-A56 was immobilised to a CM5 chip by primary amine coupling using the Biacore Wizard program designed for targeted immobilisation levels. The CM5 sensor surface was activated by passing a solution of 50 mM N-hydroxy-succinimide (NHS) and 200 mM N-ethyl-N′-dimethylaminopropyl carbonide (EDC). Then GST-human NOGO-A56 in sodium acetate buffer, pH5.0 or pH 4.5, was passed over the chip and immobilised. After immobilisation was complete any still activated esters were blocked by an injection of 1M ethanolamine hydrochloride, pH8.5.
(§2) The anti-NOGO mAbs were diluted down in HBS-EP (10 mM HEPES, pH 7.4, 150 mM NaCl, 3 mM EDTA, and 0.005% P-20 surfactant) for the BIAcore 3000 or HBS-EP+ (10 mM HEPES, pH 7.4, 150 mM NaCl, 3 mM EDTA, and 0.05% P-20 surfactant) in the case of the T100 and binding studies were carried out at range of defined antibody concentrations. All runs were referenced against a blanked sensor surface (one that had been activated and blocked as described earlier but had no addition of ligand). Analysis of binding was carried out using the BIAevaluation kinetic analysis software version 4.1 for the BIAcore 3000 and T100 kinetic analysis software version 1.0. […] Unless otherwise stated, the BIAcore experiments were performed at 25° C.

[4] = target: T5, Rat NOGO (A56) plus GST tag (rat); test: direct ELISA on GST-NOGO-A56 from rat, Abs490
T5 construct: also called GST-NOGO-A56 from rat

GST-human NOGO-A56 [5] = target: T4, GST-human NOGO-A56; test: direct ELISA, GST-human NOGO-A56 coated at 1.0 mcg/ml, purified antibody, OD490
Procedure: (§3) Wells were rinsed once with TBS+0.05% Tween (TBST) then incubated with 2% BSA in TBST to block non-specific binding sites at room temperature for 1 hour. Antibodies were diluted in TBST+2% BSA to 10 μg/ml and ½ dilutions made from this. Antibodies were added to wells in duplicate and incubated at room temperature for 1 hour. […] The wells were washed three times with TBST and then incubated with 100 μl OPD peroxidase substrate (Sigma) per well for 10 minutes. The colour reaction was stopped by the addition of 25 μl concentrated H₂SO₄. Optical density at 490 nm was measured using a plate reader. Background values read from wells with no antibody were subtracted.

GST-human NOGO-A56 [6] = target: T4, GST-human NOGO-A56; test: SPR (Biacore), GST-human NOGO-A56 amine-coupled to CM5, antibody flowed over, 25 C
Procedure: as §1, §2

[7] = target: T6, Marmoset NOGO (A56) plus GST tag (marmoset); test: direct ELISA on GST-NOGO-A56 from marmoset, Abs490
T6 construct: also called GST-NOGO-A56 from marmoset

[8] = target: T7, Squirrel monkey NOGO (A56) plus GST tag (squirrel monkey); test: direct ELISA on GST-NOGO-A56 from squirrel monkey, Abs490
T7 construct: also called GST-NOGO-A56 from squirrel monkey

GST-human NOGO-A56 [9] = target: T4, GST-human NOGO-A56; test: direct ELISA, GST-human NOGO-A56 coated at 1.0 mcg/ml, purified antibody, OD490; remark: listed apart in the source
Procedure: as §3

[10] = target: T1, native human Nogo-A of IMR32 …; test: flow cytometry on permeabilised, fixed IMR32 cells (intracellular Nogo-A), PE anti-human IgG, MFI
Procedure: In the second assay, the ability of the humanised antibodies to bind native Nogo-A was assessed using a human neuroblastoma cell line—IMR32. This cell line is characterised by high intracellular/low cell surface levels of Nogo-A protein. In an attempt to increase the binding signal, the assay was set-up to detect intracellular Nogo-A (ER-resident). IMR32 cells were permeabilised and fixed prior to staining with the anti-Nogo-A humanised antibodies. Binding of the antibodies to Nogo-A was detected using an anti-human IgG-PE labelled secondary (Sigma, #P8047).

GST-human NOGO-A56 [11] = target: T4, GST-human NOGO-A56; test: SPR (Biacore T100), reverse format: antibody captured by Protein A, GST Nogo-A 5+6 0.125-8 nM flowed over; mean (SD in brackets)
Source text: Protein A was immobilised to approximately 4000RUs by primary amine and used to capture 200-300RUs of the sample antibodies. […] The values show the mean and standard deviation (in brackets) of three independent runs in duplicate. Each data set was independently analysed prior to the calculation of the mean and standard deviation.

GST-human NOGO-A56 [12] = target: T4, GST-human NOGO-A56; test: SPR (Biacore T100), antigen amine-coupled to CM5, antibody 0.125-8 nM; mean of six runs in duplicate (SD in brackets)
Source text: In the first approach, the recombinant Nogo-A was coupled to the surface of the chip and anti-Nogo-A antibodies passed over this surface. In the second approach, Protein A was used to capture the antibody onto the surface of the chip over which the recombinant GST-human Nogo-A56 was passed.
The antigen was bound to the CM5 chip by primary amine coupling. […] The values show the mean and standard deviation (in brackets) of six independent runs carried out in duplicate. Each completed data set was analysed independently prior to the calculation of mean and standard deviation.

GST-human NOGO-A56 [13] = target: T4, GST-human NOGO-A56; test: reverse format ELISA: antibody captured on anti-human IgG, GST-Nogo-A 5+6 detected with anti-GST-HRP; the x axis is the antibody concentration
[14] = target: T8, Cynomolgus monkey NOGO (A56) plus GST tag (cynomolgus monkey); test: direct ELISA on GST-NOGO-A56 from cynomolgus, Abs490
T8 construct: also called cynomolgus Nogo-A; GST-NOGO-A56 from cynomolgus

GST-human NOGO-A56 [15] = target: T4, GST-human NOGO-A56; test: direct ELISA, GST-Nogo-A 5+6 coated at 1.0 mcg/ml, anti-human IgG-HRP, Abs490
Procedure: as §3

GST-human NOGO-A56 [16] = target: T4, GST-human NOGO-A56; test: direct ELISA, human NOGO-A (GST-human NOGO-A56) coated at 1 ug/ml, Abs490
GST-human NOGO-A56 [17] = target: T4, GST-human NOGO-A56; test: SPR (Biacore) off-rate ranking on GST-human NOGO-A56 chip, one experiment
Procedure: as §1
The GST-human NOGO-A56 chip was prepared as for kinetic analysis. Cell supernatants where taken directly from transient transfections of CHO-K1 cells. These were passed directly over the sensor surface and the interaction measured. A mock transfected cell supernatant was used for double referencing to remove any artefacts due to the tissue culture media. All runs were referenced against a blanked sensor surface (one that had been activated and blocked as described earlier but had no addition of ligand). Analysis of binding was carried out using the BIAevaluation kinetic analysis software version 4.1.

GST-human NOGO-A56 [18] = target: T4, GST-human NOGO-A56; test: SPR (Biacore), GST-human NOGO-A56 amine-coupled to CM5, antibody flowed over, 25 C; remark: listed apart in the source
Procedure: as §1, §2

GST-human NOGO-A56 [19] = target: T4, GST-human NOGO-A56; test: as above; remark: listed apart in the source
Procedure: as §1, §2

GST-human NOGO-A56 [20] = target: T4, GST-human NOGO-A56; test: competition ELISA on coated GST-Nogo-A 5+6; competitor 2A10 pre-mixed, bound 2A10 detected with anti-mouse IgG-HRP
[21] = target: T2, peptide 7 (biotin-SGSG-VLPDIVMEAPLNSAVP); test: peptide ELISA: biotinylated 16-mer peptide on streptavidin, antibody at 5 ug/ml, kappa-chain peroxidase conjugate, Abs490
Procedure: (§4) Streptavidin at 5 μg/ml in sterile water was coated onto Nunc immunosorp plates (100 μl per well) at 37° C. overnight. The plates were rinsed 3 times with PBS containing 0.05% Tween (PBST) then blocked with 3% BSA in PBST at 4° C. overnight. The plates were washed 3 times with PBST. Peptides were then added to the wells at a concentration of approximately 10 μg/ml (diluted in 3% BSA in PBST) and incubated at room temperature for 1 hour. The plates were washed 3 times with PBST then incubated for 1 hour with anti-NOGO antibodies diluted to 5 μg/ml in 3% BSA in PBST. […] The plates were washed 3 times with PBST and then incubated with 100 μl OPD peroxidase substrate (Sigma) per well for 10 minutes. The colour reaction was stopped by the addition of 50 μl 3 molar H₂SO₄. Absorbance at 490 nm was measured using a plate reader.

[22] = target: T3, peptide 6 (biotin-SGSG-TPSPVLPDIVMEAPLN); test: as above
Procedure: as §4

T4 sequence (chain, as listed by the source limits assumed): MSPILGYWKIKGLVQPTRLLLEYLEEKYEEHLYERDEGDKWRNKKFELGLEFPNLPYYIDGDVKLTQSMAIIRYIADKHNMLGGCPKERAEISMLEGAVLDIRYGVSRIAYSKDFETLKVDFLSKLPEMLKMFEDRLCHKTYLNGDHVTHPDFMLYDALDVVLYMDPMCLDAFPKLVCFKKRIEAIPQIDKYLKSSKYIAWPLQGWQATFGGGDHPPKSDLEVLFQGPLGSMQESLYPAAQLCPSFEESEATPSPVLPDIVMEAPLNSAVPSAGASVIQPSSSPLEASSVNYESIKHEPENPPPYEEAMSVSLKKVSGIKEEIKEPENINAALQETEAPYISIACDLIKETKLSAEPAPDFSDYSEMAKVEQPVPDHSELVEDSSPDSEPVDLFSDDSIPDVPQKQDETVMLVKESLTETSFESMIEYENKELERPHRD
T8 sequence (chain, as listed by the source limits assumed): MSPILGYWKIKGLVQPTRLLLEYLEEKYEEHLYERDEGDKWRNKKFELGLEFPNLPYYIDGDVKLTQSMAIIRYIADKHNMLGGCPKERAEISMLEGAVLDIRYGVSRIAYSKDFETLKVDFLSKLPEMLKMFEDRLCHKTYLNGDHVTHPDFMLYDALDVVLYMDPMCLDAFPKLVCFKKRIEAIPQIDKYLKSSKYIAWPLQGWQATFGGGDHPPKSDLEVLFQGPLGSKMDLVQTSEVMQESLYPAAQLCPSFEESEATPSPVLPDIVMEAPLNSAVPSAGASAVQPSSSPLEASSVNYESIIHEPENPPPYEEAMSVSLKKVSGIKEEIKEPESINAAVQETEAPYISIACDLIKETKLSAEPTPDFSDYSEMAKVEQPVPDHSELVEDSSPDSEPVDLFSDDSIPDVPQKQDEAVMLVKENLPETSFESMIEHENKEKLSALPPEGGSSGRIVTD
T7 sequence (chain, as listed by the source limits assumed): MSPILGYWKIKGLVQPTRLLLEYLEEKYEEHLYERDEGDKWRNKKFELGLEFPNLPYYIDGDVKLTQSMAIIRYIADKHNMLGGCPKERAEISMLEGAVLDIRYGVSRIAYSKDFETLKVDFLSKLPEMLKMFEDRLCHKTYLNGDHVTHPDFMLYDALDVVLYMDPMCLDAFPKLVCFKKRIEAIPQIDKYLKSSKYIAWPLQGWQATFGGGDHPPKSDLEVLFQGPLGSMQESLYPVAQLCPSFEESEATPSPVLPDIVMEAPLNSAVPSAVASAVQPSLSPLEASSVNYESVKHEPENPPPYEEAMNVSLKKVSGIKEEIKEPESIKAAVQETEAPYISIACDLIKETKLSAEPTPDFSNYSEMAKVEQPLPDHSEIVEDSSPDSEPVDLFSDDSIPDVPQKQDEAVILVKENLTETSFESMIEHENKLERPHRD
T6 sequence (chain, as listed by the source limits assumed): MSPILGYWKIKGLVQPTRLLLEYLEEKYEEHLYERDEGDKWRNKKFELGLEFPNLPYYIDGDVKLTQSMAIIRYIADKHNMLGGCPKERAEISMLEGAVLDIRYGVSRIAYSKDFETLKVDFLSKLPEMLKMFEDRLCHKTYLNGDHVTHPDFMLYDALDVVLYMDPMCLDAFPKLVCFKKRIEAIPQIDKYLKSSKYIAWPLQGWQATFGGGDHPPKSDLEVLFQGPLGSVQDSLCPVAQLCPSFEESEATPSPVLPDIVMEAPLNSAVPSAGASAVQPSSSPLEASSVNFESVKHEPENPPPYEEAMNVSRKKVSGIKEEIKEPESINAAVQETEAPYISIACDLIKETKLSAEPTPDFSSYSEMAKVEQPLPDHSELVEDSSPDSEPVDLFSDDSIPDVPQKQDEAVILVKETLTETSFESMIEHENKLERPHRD
T5 sequence (chain, as listed by the source limits assumed): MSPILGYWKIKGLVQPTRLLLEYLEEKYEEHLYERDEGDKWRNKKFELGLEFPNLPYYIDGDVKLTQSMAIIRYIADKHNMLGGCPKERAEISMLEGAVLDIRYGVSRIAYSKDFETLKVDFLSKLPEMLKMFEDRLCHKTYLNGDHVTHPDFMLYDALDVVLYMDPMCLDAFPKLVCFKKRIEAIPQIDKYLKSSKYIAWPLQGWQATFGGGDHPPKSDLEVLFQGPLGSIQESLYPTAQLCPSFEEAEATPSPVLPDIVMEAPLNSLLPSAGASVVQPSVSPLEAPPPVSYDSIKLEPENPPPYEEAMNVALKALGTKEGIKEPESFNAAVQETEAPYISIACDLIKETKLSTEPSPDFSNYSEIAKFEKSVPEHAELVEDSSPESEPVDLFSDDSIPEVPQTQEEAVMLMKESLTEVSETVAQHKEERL

Binder	koff (GST-human NOGO-A56 [1])	Kd (GST-human NOGO-A56 [3])	koff (GST-human NOGO-A56 [3])	kon (GST-human NOGO-A56 [3])	EC50 (read off the curve) (GST-human NOGO-A56 [5])	Kd (GST-human NOGO-A56 [6])	koff (GST-human NOGO-A56 [6])	kon (GST-human NOGO-A56 [6])	EC50 (read off the curve) (GST-human NOGO-A56 [9])	binding result [10]	Kd (GST-human NOGO-A56 [11])	Kd (GST-human NOGO-A56 [12])	EC50 (read off the curve) (GST-human NOGO-A56 [13])	EC50 (read off the curve) (GST-human NOGO-A56 [15])	EC50 (read off the curve) (GST-human NOGO-A56 [16])	Kd (GST-human NOGO-A56 [18])	koff (GST-human NOGO-A56 [18])	kon (GST-human NOGO-A56 [18])	other results
H6L13 variant with VH CDR3 WQGY (antibody, human IgG1, kappa, V domains shown, Single point variant of H6FL with L13FL) VH: QVQLVQSGAEVKKPGASVKVSCKASGYTFTSYWMHWVRQAPGQGLEWIGNINPSNGGTNYNEKFKSRATMTRDTSTSTAYMELSSLRSEDTAVYYCELWQGYWGQGTLVTVSS VL: DIVMTQSPLSLPVTLGQPASISCRSSKSLLYKDGKTYLNWFQQRPGQSPQLLIYLMSTRASGVPDRFSGGGSGTDFTLKISRVEAEDVGVYYCQQLVEYPLTFGQGTKLEIKR	0.0198 s⁻¹																		EC50 (read off the curve) (GST-human NOGO-A56 [2]): ~0.1 µg/mL
H20L16 (antibody, human IgG1, kappa, V domains shown, IgG1 (L235A, G237A) / kappa; CAMPATH-1H signal (1-19) left out) VH: QVQLVQSGAEVKKPGASVKVSCKASGYTFTSYWMHWVRQAPGQGLEWIGNINPSNGGTNYNEKFKSKATMTRDTSTSTAYMELSSLRSEDTAVYYCELGQGYWGQGTLVTVSS VL: DIVMTQSPLSNPVTLGQPVSISCRSSKSLLYKDGKTYLNWFLQRPGQSPQLLIYLMSTRASGVPDRFSGGGSGTDFTLKISRVEAEDVGVYYCQQLVEYPLTFGQGTKLEIKR		1.51 nM	0.0108 s⁻¹	7.17e+06 M⁻¹ s⁻¹	~0.09 µg/mL	1.16 nM	0.00542 s⁻¹	4.69e+06 M⁻¹ s⁻¹	~0.1 µg/mL	binds	0.31 nM	1.8 nM	~0.08 µg/mL	~0.1 µg/mL					EC50 (read off the curve) [4]: ~0.08 µg/mL; EC50 (read off the curve) [7]: ~0.07 µg/mL; EC50 (read off the curve) [8]: ~0.05 µg/mL; EC50 (read off the curve) [14]: ~0.09 µg/mL
H26L13 (antibody, human IgG1, kappa, V domains shown, H26 FL is H6 FL with G95M (Kabat); IgG1 (L235A, G237A) / kappa; CAMPATH-1H signal (1-19) left out; also called H6(G95M)L13; H6L13 with VH CDR3 MQGY) VH: QVQLVQSGAEVKKPGASVKVSCKASGYTFTSYWMHWVRQAPGQGLEWIGNINPSNGGTNYNEKFKSRATMTRDTSTSTAYMELSSLRSEDTAVYYCELMQGYWGQGTLVTVSS VL: DIVMTQSPLSLPVTLGQPASISCRSSKSLLYKDGKTYLNWFQQRPGQSPQLLIYLMSTRASGVPDRFSGGGSGTDFTLKISRVEAEDVGVYYCQQLVEYPLTFGQGTKLEIKR	0.00485 s⁻¹								~0.1 µg/mL						~0.03 µg/mL	0.963 nM	0.00311 s⁻¹	3.23e+06 M⁻¹ s⁻¹	koff (GST-human NOGO-A56 [17]): 0.00431 s⁻¹; Kd (GST-human NOGO-A56 [19]): 0.87 nM; koff (GST-human NOGO-A56 [19]): 0.00288 s⁻¹; kon (GST-human NOGO-A56 [19]): 3.45e+06 M⁻¹ s⁻¹
H27L16 (antibody, human IgG1, kappa, V domains shown, IgG1 (L235A, G237A) / kappa; CAMPATH-1H signal (1-19) left out; also called H27FL L16FL) VH: QVQLVQSGAEVKKPGASVKVSCKASGYTFTSYWMHWVKQRPGQGLEWIGNINPSNGGTNYNEKFKSKATLTVDKSTSTAYMELSSLRSEDTAVYYCELMQGYWGQGTLVTVSS VL: DIVMTQSPLSNPVTLGQPVSISCRSSKSLLYKDGKTYLNWFLQRPGQSPQLLIYLMSTRASGVPDRFSGGGSGTDFTLKISRVEAEDVGVYYCQQLVEYPLTFGQGTKLEIKR		0.426 nM	0.00306 s⁻¹	7.18e+06 M⁻¹ s⁻¹	~0.06 µg/mL	0.38 nM	0.0015 s⁻¹	3.94e+06 M⁻¹ s⁻¹		binds	0.31 nM	0.56 nM	~0.1 µg/mL	~0.04 µg/mL	~0.06 µg/mL	0.194 nM	0.00121 s⁻¹	6.24e+06 M⁻¹ s⁻¹	IC50 (read off the curve) (GST-human NOGO-A56 [20]): ~5 µg/mL
2A10 (murine monoclonal antibody) (antibody, V domains shown, Mouse monoclonal; also called parental antibody 2A10; murine donor antibody 2A10) VH: QVQLQQPGTELVKPGASVKLSCKASGYTFTSYWMHWVKQRPGQGLEWIGNINPSNGGTNYNEKFKSKATLTVDKSSSTAYMQLSSLTSEDSAVYYCELGQGYWGQGTTLTVSS VL: DIVITQDELSNPVTSGESVSISCRSSKSLLYKDGKTYLNWFLQRPGQSPQLLIYLMSTRASGVSDRFSGSGSGTDFTLEISRVKAEDVGVYYCQQLVEYPLTFGAGTKLELK																			binding result [21]: binds; binding result [22]: binds
